# Test results from patent US20230406951A1 (Pfizer, published 2023).
# T1: human TNFR2 (human, UniProt P20333 23-461)
# T1 construct: expressed on the surface of CHO cells; also called HuTNFR2; TNFRSF1B
# T1 sequence: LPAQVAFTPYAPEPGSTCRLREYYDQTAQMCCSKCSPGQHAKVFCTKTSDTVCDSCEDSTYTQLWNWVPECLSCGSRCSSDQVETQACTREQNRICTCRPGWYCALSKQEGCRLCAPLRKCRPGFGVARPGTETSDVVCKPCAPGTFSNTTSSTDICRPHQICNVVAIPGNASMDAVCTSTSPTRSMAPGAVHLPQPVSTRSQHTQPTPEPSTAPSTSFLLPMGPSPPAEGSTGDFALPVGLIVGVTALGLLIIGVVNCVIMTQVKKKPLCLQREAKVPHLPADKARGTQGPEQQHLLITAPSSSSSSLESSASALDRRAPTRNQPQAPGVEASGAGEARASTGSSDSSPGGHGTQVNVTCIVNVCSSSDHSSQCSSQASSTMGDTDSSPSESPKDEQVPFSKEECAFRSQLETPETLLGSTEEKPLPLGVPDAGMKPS
# Biological target: T1, human TNFR2
# Test: binding to human TNFR2 CHO cells
row,binding result,Binder
1,no binding,"IgG 1945 (antibody, name in Kabat numbering, V domains shown, IgG) VH: QVQLVQSGAEVKKPGASVKVSCKVSGFSFPSSGVDWVRQAPGQGLEWLGVTRGEGSTHYNQKFQGRVTITKDTSKSTVYMELSSLRSEDTAVYYCASGEWDEGFVYWGQGTLVTVSS VL: DIQLTQSPSFLSASVGDRVTITCKASQNVGTAVAWYQQKPGKAPKLLIYAASTLQSGVPSRFSGSGSGTEFTLTISSLQPEDFATYYCLQYSSYPLTFGGGTKVEIKR"
2,no binding,"IgG 1916 (antibody, name in Kabat numbering, V domains shown, IgG) VH: QVQLVQSGAEVKKPGASVKVSCKVSGFSFPSSGVDWVRQAPGQGLEWLGVTWGVGSTHYNQKFQGRVTITKDTSKSTVYMELSSLRSEDTAVYYCASGEQDEGFVYWGQGTLVTVSS VL: DIQLTQSPSFLSASVGDRVTITCKASQNVGTAVAWYQQKPGKAPKLLIYAASTLQSGVPSRFSGSGSGTEFTLTISSLQPEDFATYYCQQYSSYPLTFGGGTKVEIKR"
3,no binding,"IgG 1942 (antibody, name in Kabat numbering, V domains shown, IgG) VH: QVQLVQSGAEVKKPGASVKVSCKVSGFSFPSSGVDWVRQAPGQGLEWLGVTWGVGSTHYNQKFQGRVTITKDTSKSTVYMELSSLRSEDTAVYYCASGERDEGFVYWGQGTLVTVSS VL: DIQLTQSPSFLSASVGDRVTITCKASQNVGTAVAWYQQKPGKAPKLLIYAASTLQSGVPSRFSGSGSGTEFTLTISSLQPEDFATYYCLQKSSYPLTFGGGTKVEIKR"
4,no binding,"IgG 1914 (antibody, name in Kabat numbering, V domains shown, IgG) VH: QVQLVQSGAEVKKPGASVKVSCKVSGFSFPSSGVDWVRQAPGQGLEWLGVTWGVGSTHYNQKFQGRVTITKDTSKSTVYMELSSLRSEDTAVYYCASGEHDEGFVYWGQGTLVTVSS VL: DIQLTQSPSFLSASVGDRVTITCKASQNVGTAVAWYQQKPGKAPKLLIYAASTLQSGVPSRFSGSGSGTEFTLTISSLQPEDFATYYCQQYSSYPLTFGGGTKVEIKR"
5,no binding,"IgG 1936 (antibody, name in Kabat numbering, V domains shown, IgG) VH: QVQLVQSGAEVKKPGASVKVSCKVSGFSFPSSGVDWVRQAPGQGLEWLGVTRGEGSTHYNQKFQGRVTITKDTSKSTVYMELSSLRSEDTAVYYCASGEWDEGFVYWGQGTLVTVSS VL: DIQLTQSPSFLSASVGDRVTITCKASQNVGTAVAWYQQKPGKAPKLLIYAASTLQSGVPSRFSGSGSGTEFTLTISSLQPEDFATYYCLQKSSYPLTFGGGTKVEIKR"
6,no binding,"IgG 1912 (antibody, name in Kabat numbering, V domains shown, IgG) VH: QVQLVQSGAEVKKPGASVKVSCKVSGFSFPSSGVDWVRQAPGQGLEWLGVTHGSGSTHYNQKFQGRVTITKDTSKSTVYMELSSLRSEDTAVYYCASGEWDEGFVYWGQGTLVTVSS VL: DIQLTQSPSFLSASVGDRVTITCKASQNVGTAVAWYQQKPGKAPKLLIYAASTLQSGVPSRFSGSGSGTEFTLTISSLQPEDFATYYCQQYSSYPLTFGGGTKVEIKR"
7,no binding,"IgG 1938 (antibody, name in Kabat numbering, V domains shown, IgG) VH: QVQLVQSGAEVKKPGASVKVSCKVSGFSFPSSGVDWVRQAPGQGLEWLGVTLGHGSTHYNQKFQGRVTITKDTSKSTVYMELSSLRSEDTAVYYCASGEWDEGFVYWGQGTLVTVSS VL: DIQLTQSPSFLSASVGDRVTITCKASQNVGTAVAWYQQKPGKAPKLLIYAASTLQSGVPSRFSGSGSGTEFTLTISSLQPEDFATYYCLQKSSYPLTFGGGTKVEIKR"
8,no binding,"IgG 1944 (antibody, name in Kabat numbering, V domains shown, IgG) VH: QVQLVQSGAEVKKPGASVKVSCKVSGFSFPSSGVDWVRQAPGQGLEWLGVTKGQGSTHYNQKFQGRVTITKDTSKSTVYMELSSLRSEDTAVYYCASGEWDEGFVYWGQGTLVTVSS VL: DIQLTQSPSFLSASVGDRVTITCKASQNVGTAVAWYQQKPGKAPKLLIYAASTLQSGVPSRFSGSGSGTEFTLTISSLQPEDFATYYCLQYSSYPLTFGGGTKVEIKR"
9,no binding,"IgG 1910 (antibody, name in Kabat numbering, V domains shown, IgG) VH: QVQLVQSGAEVKKPGASVKVSCKVSGFSFPSSGVDWVRQAPGQGLEWLGVTFQEGSTHYNQKFQGRVTITKDTSKSTVYMELSSLRSEDTAVYYCASGEWDEGFVYWGQGTLVTVSS VL: DIQLTQSPSFLSASVGDRVTITCKASQNVGTAVAWYQQKPGKAPKLLIYAASTLQSGVPSRFSGSGSGTEFTLTISSLQPEDFATYYCQQYSSYPLTFGGGTKVEIKR"
10,no binding,"IgG 1940 (antibody, name in Kabat numbering, V domains shown, IgG) VH: QVQLVQSGAEVKKPGASVKVSCKVSGFSFPSSGVDWVRQAPGQGLEWLGVTWGVGSTHYNQKFQGRVTITKDTSKSTVYMELSSLRSEDTAVYYCASGESTEGFVYWGQGTLVTVSS VL: DIQLTQSPSFLSASVGDRVTITCKASQNVGTAVAWYQQKPGKAPKLLIYAASTLQSGVPSRFSGSGSGTEFTLTISSLQPEDFATYYCLQKSSYPLTFGGGTKVEIKR"
11,no binding,"IgG 1941 (antibody, name in Kabat numbering, V domains shown, IgG) VH: QVQLVQSGAEVKKPGASVKVSCKVSGFSFPSSGVDWVRQAPGQGLEWLGVTWGVGSTHYNQKFQGRVTITKDTSKSTVYMELSSLRSEDTAVYYCASGEHDEGFVYWGQGTLVTVSS VL: DIQLTQSPSFLSASVGDRVTITCKASQNVGTAVAWYQQKPGKAPKLLIYAASTLQSGVPSRFSGSGSGTEFTLTISSLQPEDFATYYCLQKSSYPLTFGGGTKVEIKR"
12,no binding,"IgG 1908 (antibody, name in Kabat numbering, V domains shown, IgG) VH: QVQLVQSGAEVKKPGASVKVSCKVSGFSFPSSGVDWVRQAPGQGLEWLGVTKGQGSTHYNQKFQGRVTITKDTSKSTVYMELSSLRSEDTAVYYCASGEWDEGFVYWGQGTLVTVSS VL: DIQLTQSPSFLSASVGDRVTITCKASQNVGTAVAWYQQKPGKAPKLLIYAASTLQSGVPSRFSGSGSGTEFTLTISSLQPEDFATYYCQQYSSYPLTFGGGTKVEIKR"
13,no binding,"IgG 1913 (antibody, name in Kabat numbering, V domains shown, IgG) VH: QVQLVQSGAEVKKPGASVKVSCKVSGFSFPSSGVDWVRQAPGQGLEWLGVTWGVGSTHYNQKFQGRVTITKDTSKSTVYMELSSLRSEDTAVYYCASGESTEGFVYWGQGTLVTVSS VL: DIQLTQSPSFLSASVGDRVTITCKASQNVGTAVAWYQQKPGKAPKLLIYAASTLQSGVPSRFSGSGSGTEFTLTISSLQPEDFATYYCQQYSSYPLTFGGGTKVEIKR"
14,no binding,"IgG 1909 (antibody, name in Kabat numbering, V domains shown, IgG) VH: QVQLVQSGAEVKKPGASVKVSCKVSGFSFPSSGVDWVRQAPGQGLEWLGVTRGEGSTHYNQKFQGRVTITKDTSKSTVYMELSSLRSEDTAVYYCASGEWDEGFVYWGQGTLVTVSS VL: DIQLTQSPSFLSASVGDRVTITCKASQNVGTAVAWYQQKPGKAPKLLIYAASTLQSGVPSRFSGSGSGTEFTLTISSLQPEDFATYYCQQYSSYPLTFGGGTKVEIKR"
15,no binding,"IgG 1915 (antibody, name in Kabat numbering, V domains shown, IgG) VH: QVQLVQSGAEVKKPGASVKVSCKVSGFSFPSSGVDWVRQAPGQGLEWLGVTWGVGSTHYNQKFQGRVTITKDTSKSTVYMELSSLRSEDTAVYYCASGERDEGFVYWGQGTLVTVSS VL: DIQLTQSPSFLSASVGDRVTITCKASQNVGTAVAWYQQKPGKAPKLLIYAASTLQSGVPSRFSGSGSGTEFTLTISSLQPEDFATYYCQQYSSYPLTFGGGTKVEIKR"
16,no binding,"IgG 1943 (antibody, name in Kabat numbering, V domains shown, IgG) VH: QVQLVQSGAEVKKPGASVKVSCKVSGFSFPSSGVDWVRQAPGQGLEWLGVTWGVGSTHYNQKFQGRVTITKDTSKSTVYMELSSLRSEDTAVYYCASGEQDEGFVYWGQGTLVTVSS VL: DIQLTQSPSFLSASVGDRVTITCKASQNVGTAVAWYQQKPGKAPKLLIYAASTLQSGVPSRFSGSGSGTEFTLTISSLQPEDFATYYCLQKSSYPLTFGGGTKVEIKR"
17,no binding,"IgG 1911 (antibody, name in Kabat numbering, V domains shown, IgG) VH: QVQLVQSGAEVKKPGASVKVSCKVSGFSFPSSGVDWVRQAPGQGLEWLGVTLGHGSTHYNQKFQGRVTITKDTSKSTVYMELSSLRSEDTAVYYCASGEWDEGFVYWGQGTLVTVSS VL: DIQLTQSPSFLSASVGDRVTITCKASQNVGTAVAWYQQKPGKAPKLLIYAASTLQSGVPSRFSGSGSGTEFTLTISSLQPEDFATYYCQQYSSYPLTFGGGTKVEIKR"
18,no binding,"IgG 1946 (antibody, name in Kabat numbering, V domains shown, IgG) VH: QVQLVQSGAEVKKPGASVKVSCKVSGFSFPSSGVDWVRQAPGQGLEWLGVTFQEGSTHYNQKFQGRVTITKDTSKSTVYMELSSLRSEDTAVYYCASGEWDEGFVYWGQGTLVTVSS VL: DIQLTQSPSFLSASVGDRVTITCKASQNVGTAVAWYQQKPGKAPKLLIYAASTLQSGVPSRFSGSGSGTEFTLTISSLQPEDFATYYCLQYSSYPLTFGGGTKVEIKR"
19,no binding,"IgG 1947 (antibody, name in Kabat numbering, V domains shown, IgG) VH: QVQLVQSGAEVKKPGASVKVSCKVSGFSFPSSGVDWVRQAPGQGLEWLGVTLGHGSTHYNQKFQGRVTITKDTSKSTVYMELSSLRSEDTAVYYCASGEWDEGFVYWGQGTLVTVSS VL: DIQLTQSPSFLSASVGDRVTITCKASQNVGTAVAWYQQKPGKAPKLLIYAASTLQSGVPSRFSGSGSGTEFTLTISSLQPEDFATYYCLQYSSYPLTFGGGTKVEIKR"
20,no binding,"IgG 1937 (antibody, name in Kabat numbering, V domains shown, IgG) VH: QVQLVQSGAEVKKPGASVKVSCKVSGFSFPSSGVDWVRQAPGQGLEWLGVTFQEGSTHYNQKFQGRVTITKDTSKSTVYMELSSLRSEDTAVYYCASGEWDEGFVYWGQGTLVTVSS VL: DIQLTQSPSFLSASVGDRVTITCKASQNVGTAVAWYQQKPGKAPKLLIYAASTLQSGVPSRFSGSGSGTEFTLTISSLQPEDFATYYCLQKSSYPLTFGGGTKVEIKR"
